# No end group written: not given here.
# Experiments:
# [1] = target: T1, human PCNA (Homo sapiens, UniProt P12004); experiment: Isothermal titration calorimetry (ITC), PIP peptide titrated into wild-type PCNA; type: binding
# T1 construct: His6 (C); made in house; host or cells: E. coli Codon Plus BL21(DE3) pLysS
# Text: The wild-type and R426D peptides were expressed as GST fusions in E. coli, purified to homogeneity (see Materials and Methods) and used in isothermal titration calorimetry (ITC) assays with human PCNA purified from E. coli.
# Recombinant PCNA, PCNA-Y250I, and the PIP peptides (wild-type, R426D) were expressed and purified as described in the Supplementary Materials section—“Expression and purification of recombinant proteins”. The proteins were dialyzed against three 4-litre changes of ITC buffer containing 10 mM sodium phosphate, pH 7.0, and 10 mM NaCl at 4 °C overnight. The concentrations of PCNA and PIP peptides were determined by measuring tyrosine absorption at A280nm. ITC titrations of peptides into PCNA were performed at 23 °C in the ITC buffer (10 mM sodium phosphate, pH 7.0, 10 mM NaCl) using a MicroCal VP-ITC system. The concentrations of injected wild-type and mutant PIP in the syringe varied from 200 to 500 μM, whereas PCNA in the ITC sample cell varied depending on the experiment from 20 to 50 μM PCNA monomer. The protein and peptide samples were degassed before the ITC run. Data analysis was performed using the MicroCal Origin 7.0 software (OriginLab Corporation, Northampton, MA, USA) and all experiments fit the single binding site model.
# Supplementary Materials-Expression and purification of recombinant proteins
# S1. Expression and purification of GST-PIP fusion proteins in Escherichia coli Wild-type p150 PIP and R426D peptides were constructed as GST-fusion proteins with a tyrosine at the C-terminus of the peptide. The C-terminal tyrosine was added to aid in peptide detection during the purification by measuring the absorbance at 280 nm. The DNA fragments encoding the GST fusion proteins were inserted into a pGEX-TEV vector, which is essentially a modified pGEX-2T vector where the thrombin cleavage site was replaced with a TEV cleavage site. The pGEX-TEV plasmid was digested with BamHI and EcoRI and ligated to DNA fragments encoding either the p150 PIP wild-type and R426D. The plasmids pGEX-TEV-PIP wild type and pGEX-TEV-PIP R426D were con-firmed by DNA sequencing and then expressed in Escherichia coli host strain TOPP2 (Strat-agene) with 100 µg/ml ampicillin to saturation at 37°C. The next day, the saturated cells were diluted to 0.05 OD measured at A600 nm and the cells were grown at 37°C until the cells reach the mid-exponential phase of 0.6-0.8 at OD A600 nm. The cells were then in-duced with 1 mM isopropyl-D-thiogalactopyranoside (IPTG) for 4 h. Eight litres of cell culture were grown each for the wild-type and R426D mutant. The cells were then har-vested by centrifugation in an Avanti J-26XP high-performance centrifuge from Beckman Coulter with a fixed angle rotor (JLA-8.1000) at 9000 x g for 30 min at 4°C. The pellet from 1 litre cells equivalent was lysed in 10 ml of lysis buffer containing 20 mM Tris pH 7.5, 1 M NaCl, 0.2 mM EDTA, 1 mM DTT, 50 µg/ml lysozyme, 1 mM AEBSF and one tablet of cOmplete™ Mini EDTA-free Protease Inhibitor Cocktail Tablets (Roche). The cell pellet was sonicated in the lysis buffer on ice, at power output level 4 with 10 seconds pulse on and 30 seconds off at 6 watts using a Misonix 3000 Ultrasonic cell disruptor and wider probe. The lysate was clarified by centrifugation for 30 min in an Avanti J-26XP with a fixed angle rotor 25.50 at 30966 x g at 4°C. The clarified supernatant was incubated on a nutator for 6 h at 4°C with 10 ml of glutathione-Sepharose (GSH) resin (Amersham) pre-washed and equilibrated with lysis buffer. After incubation the GSH resin was pelleted, the unbound supernatant was removed, and the resin was washed thrice with lysis buffer and twice with Tobacco Etch Virus (TEV) protease buffer (20 mM sodium phosphate pH 6.5, 50 mM NaCl, 2 mM DTT). The peptide was cleaved from the GSH resin by incubating in the presence of TEV protease overnight at 4°C. The next day, the supernatant was har-vested by centrifugation, and the GSH resin was washed twice with 20 mM sodium phos- […]
# [2] = target: T2, proliferating cell nuclear antigen (PCNA), wild type (human, UniProt P12004 1-261); experiment: ITC; peptide (200 to 500 uM in the syringe) titrated into PCNA (20 to 50 uM monomer in the cell); 10 mM sodium phosphate pH 7.0, 10 mM NaCl, 23 °C; single binding site model; apparent Kd; conditions: both partners purified
# T2 construct: human PCNA purified from E. coli; Homo-trimeric ring (88.7 kDa as printed); Human is stated for the ITC; In the functional rows PCNA is the endogenous protein of the human HEK-293 S100 extract; also called human PCNA; source: E. coli, purified
# T2 sequence (P12004 whole entry): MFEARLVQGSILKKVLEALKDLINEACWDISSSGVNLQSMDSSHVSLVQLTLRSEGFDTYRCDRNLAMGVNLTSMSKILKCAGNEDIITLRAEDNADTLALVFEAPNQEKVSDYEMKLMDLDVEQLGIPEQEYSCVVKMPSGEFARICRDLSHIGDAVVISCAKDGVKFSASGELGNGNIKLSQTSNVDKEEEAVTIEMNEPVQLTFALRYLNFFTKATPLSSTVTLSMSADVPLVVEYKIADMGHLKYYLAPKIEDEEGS
# [3] = test system: mouse NIH3T3 cells; experiment: Localization of GFP-p150 relative to PCNA replication foci in mid S-phase NIH3T3 cells; type: cell-based; conditions: for localization to heterochromatin foci: DAPI staining
# Text: Cells in early S-phase show numerous small PCNA foci distributed throughout the nucleus. These foci can be resolved from each other using super-resolution microscopy but are difficult to resolve from each other by confocal microscopy. This makes protein localization to early S-phase PCNA foci difficult to assess using conventional tools for microscopy. Mid S-phase is the stage when perinuclear and peri-nucleolar chromatin are replicated. The corresponding PCNA foci are relatively large and distant from each other, making co-localization of a protein of interest with PCNA straightforward. Late S-phase is the stage when pericentric heterochromatin replicates. […] Because of these constraints, we focused our attention on cells with patterns of PCNA foci characteristic of mid S-phase. As reported in previous studies, we observed a distinct immunostaining pattern for PCNA with the monoclonal antibody PC10. During mid S-phase, staining of PCNA with PC10 occurred within foci located around the periphery of the nuclear envelope (Figure 4B, top panel, PC10). […] Asynchronously proliferating mouse NIH 3T3 cells were transduced with lentiviral vectors, and expression of wild-type and mutant forms of GFP-p150 was induced with doxycycline. Cells were fixed and permeabilized for PCNA detection with the PC10 monoclonal antibody. Mid-S phase cells were identified based upon their stereotypical pattern of PCNA staining at the nuclear periphery. […] The Pearson’s correlation coefficient of GFP WT-mp150 was 0.6, and 0.25 for the mutant GFP-p150 R426D. This is consistent with previous observations, that when CAF-1 is unable to bind to PCNA, it prematurely associates with pericentric heterochromatin in early and mid S-phase.
# To study the localization of GFP CAF-1 p150 wild-type and mutants relative to that of PCNA, cDNAs encoding mouse p150 were cloned into a doxycycline-inducible lentiviral vector pCW-Cas9 plasmid encoding a TetON (minimal CMV) promoter (Addgene plasmid 50661). The Cas9 insert was replaced by wild-type or mutant mouse CAF-1 p150 using the restriction enzymes NheI and BamHI. GFP-p150 wild-type and mutant fusion proteins were excised from the EGFP-C1 vector (Clonetech) using Nhe1 and BamH1 restriction enzymes as previously reported. NheI and BamHI digested fragments were run on 0.8% agarose gel and the corresponding DNA bands: vector—pCW-Cas9 (7036 bp) and inserts—wild-type mp150, R426D (3983 bp) were gel purified using Qiagen DNA extraction spin prep columns. Purified DNAs were ligated using the Takara DNA ligase enzyme, following the manufacturer’s recommended protocol. Positive clones were selected on Luria-Bertani medium containing 100 µg/mL ampicillin, and after DNA isolation, the clones were verified by DNA sequencing. […]
# T1 sequence (P12004 whole entry): as above
molecule,measurement,setting,value
"KAEITDFFQKPKT [CAF-1 PIP R426D, R426D p150 PIP expressed as GST fusion with C-terminal tyrosine, TEV-cleaved and purified, used for ITC]",Kd (result in words),"[1]; ITC at 296 K, 10 mM Na-phosphate (pH 7.0), 10 mM NaCl, R426D",No binding
same,heat exchange / binding to wild-type PCNA,"[1]; ITC, 23 °C, 10 mM sodium phosphate, pH 7.0, 10 mM NaCl",did not observe any heat exchange
IKAEKAEITRFFQKPKTPQA (also: expressed as a GST fusion) [CAF-1 PIP wild-type peptide (expressed as a GST fusion)],Kd,[2],24 µM
same,dH,[2],-1.87 kcal/mol
same,stoichiometry N,[2],0.83
"GFP-p150 R426D: GFP fusion of mouse CAF-1 p150 with R426D mutation (protein, UniProt Q9QWF0 1-911, looked up, variant R426D, GFP fusion, GFP fusion of mouse CAF-1 p150 with R426D mutation) Chromatin assembly factor 1 …: MLEEPEAATRTAAAVDCKDRPGFPVKRLIQARLPFKRLNLVPKEKVEEDTSPKAAVESKVPDLQLSLGTFESQCHTGSHVGLSTKLVGGQGPIDSFLRATIKPVPSVVIIDLTENCSDIPDSPEGHSELSPDTAGVVTTVEGAAKQQEHSAAELCLLETPSDITCHMEEEPGSPGDPKRTGDCQAGSLQSCPELTPGSRTCPTKELSSWSKAGDLLFIEKVPVVVLEDILATKPSIASLPMMSLDRSVTSESEILESCPEDDSILSHSSTNSSSPTSSPEGPSTPPEHRGGRSSPSTPACRVAKNFVKGSTEKGRSKLHRDREQQREEKEKLREEIRRAKEEARKKKEEEKELKEKERREKREKDEKEKAEKQRLKEEKRKERQEALEAKLEEKRKKEEEKRLREEEKRLREEEKRIKAEKAEITDFFQKPKTPQAPKTLAGSCGKFAPFEIKEHMVLAPRCRAALDQDLCDQLDQLLQQQSVASTFLSDLKSRLPLRSGPTRVCGHDTDIMNRDVVIVESSKVDGVSERKKFGRMKLLQFSENHRPAYWGTWNKKTAIIRPRNPWAQDKDLLDYEVDSDDEWEEEEPGESLSHSEGDEDDDVGEDEDEDDGFFVPHGYLSEDEGVTEECADPENHKVHQKLKAKEWDELLAKGKRFRVLQPVHVGCVWASEAANCTSSDLKLLQQFTACLLDVASPDEPEPGASRREKRDQHILAQLLPLLHGNVNGSKVIIHEFQEQCRRGLLTLPSPTPHLQMPNLEDAVAVPSKARLKRLISENSAYEKRPNFRMCWYVHPEVLKSFGQECLPVPCQWTYITTMPSAPREDSGSASTEGPGQSTPMLLKRKPAATMCITQFMKKRRYDGQVGSGDMDGFQADTEEDEEDDTDCMIIDVPDVGSDVSEAPIPAPTLCK",Pearson’s correlation coefficient,"[3]; GFP-p150 vs PCNA (PC10), mid S-phase NIH3T3 cells, doxycycline 2 µg/mL",0.25
same,localization to heterochromatin foci,[3]; mid S-phase,anomalously found largely within the nuclear interior and the large heterochromatic foci
same,localization to heterochromatin foci,"[3]; mid S-phase, listed as CAF-1 p150 R426D",more localized to the pericentric heterochromatin
same,localization to PCNA foci at nuclear periphery,"[3]; mid S-phase, confocal microscopy, PC10 staining",did not co-localize with PCNA foci at the nuclear periphery
